{"source": "paper PMC9320952", "about": "(Molecular Microbiology, 2022)", "proteins": {"B1": {"name": "SepF (purified, freed from MBP-SepF by factor Xa) (natural protein, B. subtilis, UniProt O31728 1-151, looked up)", "chain": "MSMKNKLKNFFSMEDEEYEYEYIETERESHEEHEQKEKPAYNGNKPAGKQNVVSLQSVQKSSKVVLSEPRVYAEAQEIADHLKNRRAVVVNLQRIQHDQAKRIVDFLSGTVYAIGGDIQRIGSDIFLCTPDNVDVSGTISELISEDEHQRW"}}, "biological_target": "the molecule itself", "experiment": "negative staining electron microscopy"}
{"protein": "B1", "values": [{"measurement": "binding result", "result": "binds"}]}
